Laboratory results reported in publication PMC2223497 (2026).

How the values were obtained:
Assay in all cases: Scatchard binding assay
[1] = biological target: T1, G-CSF receptor (KK cells) (Homo sapiens, UniProt Q99062)
T1 chain: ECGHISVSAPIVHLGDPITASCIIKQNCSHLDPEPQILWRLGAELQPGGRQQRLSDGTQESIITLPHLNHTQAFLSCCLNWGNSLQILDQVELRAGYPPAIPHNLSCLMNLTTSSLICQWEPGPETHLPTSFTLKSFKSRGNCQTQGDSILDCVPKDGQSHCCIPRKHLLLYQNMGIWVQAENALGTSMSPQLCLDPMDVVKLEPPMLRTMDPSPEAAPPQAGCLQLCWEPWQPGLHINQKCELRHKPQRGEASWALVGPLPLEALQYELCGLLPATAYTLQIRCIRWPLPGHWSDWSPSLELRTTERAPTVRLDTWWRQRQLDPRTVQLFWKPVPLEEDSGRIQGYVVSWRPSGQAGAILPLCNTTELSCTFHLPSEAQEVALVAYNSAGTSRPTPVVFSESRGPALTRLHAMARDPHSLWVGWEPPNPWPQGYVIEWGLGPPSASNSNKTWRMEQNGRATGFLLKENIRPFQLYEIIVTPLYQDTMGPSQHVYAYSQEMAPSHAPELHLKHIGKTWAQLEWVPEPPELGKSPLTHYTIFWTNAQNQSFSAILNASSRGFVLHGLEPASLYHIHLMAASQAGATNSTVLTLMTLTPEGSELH

[2] = biological target: T2, G-CSF receptor (NBT-2 cells) (Homo sapiens, UniProt Q99062)
T2 chain: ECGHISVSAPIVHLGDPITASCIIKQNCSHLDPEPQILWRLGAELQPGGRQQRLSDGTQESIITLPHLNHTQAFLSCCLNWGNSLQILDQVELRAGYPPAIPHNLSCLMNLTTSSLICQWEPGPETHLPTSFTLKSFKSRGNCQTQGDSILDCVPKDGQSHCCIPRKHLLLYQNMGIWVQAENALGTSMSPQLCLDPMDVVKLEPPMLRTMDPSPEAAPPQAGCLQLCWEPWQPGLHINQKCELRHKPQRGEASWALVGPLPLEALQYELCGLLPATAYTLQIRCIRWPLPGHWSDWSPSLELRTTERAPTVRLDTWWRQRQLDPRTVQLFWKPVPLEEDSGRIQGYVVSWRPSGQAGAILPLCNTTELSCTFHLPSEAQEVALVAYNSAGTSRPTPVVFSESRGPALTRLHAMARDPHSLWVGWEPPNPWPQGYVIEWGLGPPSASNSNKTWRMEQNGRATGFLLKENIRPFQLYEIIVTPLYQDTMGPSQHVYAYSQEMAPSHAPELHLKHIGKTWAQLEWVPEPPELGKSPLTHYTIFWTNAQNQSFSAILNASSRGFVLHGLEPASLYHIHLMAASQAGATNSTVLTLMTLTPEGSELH

[3] = biological target: T3, G-CSF receptor (KU-1 cells) (Homo sapiens, UniProt Q99062)
T3 chain: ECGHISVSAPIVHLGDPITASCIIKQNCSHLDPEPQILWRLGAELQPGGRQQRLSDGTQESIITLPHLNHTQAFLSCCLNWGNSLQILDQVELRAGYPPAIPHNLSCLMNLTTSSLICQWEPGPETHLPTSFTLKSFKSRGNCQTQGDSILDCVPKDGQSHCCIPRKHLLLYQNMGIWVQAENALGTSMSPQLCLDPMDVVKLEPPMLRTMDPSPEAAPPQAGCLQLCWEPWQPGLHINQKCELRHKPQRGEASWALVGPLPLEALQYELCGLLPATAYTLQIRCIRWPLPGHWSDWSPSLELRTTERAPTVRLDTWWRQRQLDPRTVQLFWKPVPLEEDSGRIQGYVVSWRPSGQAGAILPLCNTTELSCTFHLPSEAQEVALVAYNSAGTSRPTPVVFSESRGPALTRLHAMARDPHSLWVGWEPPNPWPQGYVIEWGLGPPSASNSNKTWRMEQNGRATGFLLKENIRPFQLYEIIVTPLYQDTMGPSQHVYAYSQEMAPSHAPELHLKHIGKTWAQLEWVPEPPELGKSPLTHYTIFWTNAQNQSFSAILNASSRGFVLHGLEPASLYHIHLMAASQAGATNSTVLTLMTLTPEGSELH

- Kd [1]: 0.103 nM
- Kd [2]: 0.34 nM
- Kd [3]: 0.49 nM
B1: G-CSF (protein)
chain: TPLGPASSLPQSFLLKCLEQVRKIQGDGAALQEKLVSECATYKLCHPEELVLLGHSLGIPWAPLSSCPSQALQLAGCLSQLHSGLFLYQGLLQALEGISPELGPTLDTLQLDVADFATTIWQQMEELGMAPALQPTQGAMPAFASAFQRRAGGVLVASHLQSFLEVSYRVLRHLAQP
